Results on four molecules are retold here after article PMC2879712 (Journal of cellular biochemistry, 2010).

Where two headings read alike, the source gives them in different places.

For test [1], the target named is RAGE C1 domain (Homo sapiens) (UniProt Q15109). As to conditions: cited from earlier work.
Test [2] has as its target sRAGE-Fc sRAGE (Homo sapiens) (UniProt Q15109). As to conditions: cited from earlier work.
The target of test [3] is RAGE V-domain (Mus musculus) (UniProt Q62151). As to conditions: cited from earlier work.
Test [4] concerns the target RAGE (Bos taurus) (UniProt Q28173). As to conditions: cited from earlier work.
The target is the same in test [5]. As to conditions: cited from earlier work. This is another data set of the same source.
For the next test, the target named is T1, total bovine lung RAGE (bovine, UniProt Q28173 23-416, N-glycans (native glycosylation)).
T1 sequence (looked up): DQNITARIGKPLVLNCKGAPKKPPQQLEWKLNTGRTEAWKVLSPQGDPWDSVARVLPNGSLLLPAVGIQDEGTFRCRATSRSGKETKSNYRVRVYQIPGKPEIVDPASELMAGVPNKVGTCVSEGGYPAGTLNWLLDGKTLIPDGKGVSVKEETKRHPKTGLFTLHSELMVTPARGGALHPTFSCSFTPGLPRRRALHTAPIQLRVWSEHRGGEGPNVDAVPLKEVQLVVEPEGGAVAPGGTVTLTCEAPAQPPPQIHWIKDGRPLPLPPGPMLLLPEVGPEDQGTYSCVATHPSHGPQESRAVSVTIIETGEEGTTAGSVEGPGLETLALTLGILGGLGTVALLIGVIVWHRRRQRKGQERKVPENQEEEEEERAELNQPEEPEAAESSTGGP
Briefly: ELISA. (An ELISA detects its analyte on a solid surface through an enzyme-linked reagent.)

The target of test [6] is T2, mAbGB3.1-enriched bovine RAGE (bovine, UniProt Q28173 23-416, N-glycans enriched for carboxylated glycans).
T2 sequence (looked up): T1 sequence (looked up)
Put plainly: ELISA.

The target of test [7] is His-tagged human sRAGE expressed in U373 cells (human, UniProt Q15109 23-342, N-glycans). Briefly: ELISA.
The target of test [8] is His-tagged human sRAGE expressed in H4 cells (human, UniProt Q15109 23-342, N-glycans). Briefly: ELISA.
In test [9] the target is His-tagged human sRAGE expressed in HL60 cells (human, UniProt Q15109 23-342, N-glycans). Put plainly: ELISA.
The target in test [10] is His-tagged human sRAGE expressed in HeLa cells (human, UniProt Q15109 23-342, N-glycans at N25 and N81). Put plainly: ELISA.
Test [11] addresses His-tagged human sRAGE expressed in HEK293 cells (human, UniProt Q15109 23-342, N-glycans). Briefly: ELISA.

Sequence of His-tagged human sRAGE expressed in HeLa cells (Q15109 23-342): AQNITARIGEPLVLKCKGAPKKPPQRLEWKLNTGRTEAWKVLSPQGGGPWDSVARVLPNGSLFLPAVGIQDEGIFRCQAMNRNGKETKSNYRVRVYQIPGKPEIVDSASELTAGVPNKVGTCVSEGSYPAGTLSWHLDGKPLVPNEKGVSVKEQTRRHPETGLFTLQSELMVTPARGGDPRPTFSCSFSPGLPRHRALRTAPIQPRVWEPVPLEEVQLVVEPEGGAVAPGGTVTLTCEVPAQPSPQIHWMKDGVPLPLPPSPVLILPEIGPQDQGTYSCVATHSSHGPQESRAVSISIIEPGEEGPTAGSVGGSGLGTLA
Sequence of sRAGE-Fc sRAGE (Homo sapiens) (Q15109 23-342): as above
Sequence of His-tagged human sRAGE expressed in U373 cells (Q15109 23-342): as above
Sequence of His-tagged human sRAGE expressed in HL60 cells (Q15109 23-342): as above
Sequence of His-tagged human sRAGE expressed in H4 cells (Q15109 23-342): as above
Sequence of His-tagged human sRAGE expressed in HEK293 cells (Q15109 23-342): as above
Sequence of RAGE C1 domain (Homo sapiens) (Q15109 124-221): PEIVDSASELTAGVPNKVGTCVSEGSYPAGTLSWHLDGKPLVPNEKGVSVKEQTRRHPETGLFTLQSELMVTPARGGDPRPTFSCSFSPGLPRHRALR
Sequence of RAGE V-domain (Mus musculus) (Q62151 23-109): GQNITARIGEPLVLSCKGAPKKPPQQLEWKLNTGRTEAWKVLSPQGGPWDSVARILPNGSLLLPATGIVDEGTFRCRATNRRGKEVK

S100A12 (from UniProt P80511): the figures for the dissociation constant (Kd) in [1], in test [2] and in test [3] were 90 nM, 80 nM and 90 nM, respectively.

Take S100A8/A9 (from UniProt P05109): the equilibrium dissociation constant (Kd) (usually the free concentration of one partner at which half of the binding sites on the other are occupied at equilibrium, for simple one-to-one binding) in the test with RAGE (Bos taurus) [4] is 7.62 nM; with RAGE (Bos taurus) [5], 34.4 nM.

B1: purified human S100A11 (ligand, UniProt P31949 1-105, looked up)
chain: MAKISSPTETERCIESLIAVFQKYAGKDGYNYTLSKTEFLSFMNTELAAFTKNQKDPGVLDRMMKKLDTNSDGQLDFSEFLNLIGGLAMACHDSFLKAVPSQKRT
Regarding B1, the dissociation constant (Kd) was 53.1 ± 7.8 nM in the test with total bovine lung RAGE and 30.9 ± 3.6 nM in [6].

B2: recombinant human S100A12 (ligand, UniProt P80511 1-92, looked up)
chain: MTKLEEHLEGIVNIFHQYSVRKGHFDTLSKGELKQLLTKELANTIKNIKDKAVIDEIFQGLDANQDEQVDFQEFISLVAIALKAAHYHTHKE
For the molecule B2, the binding result in test [7], in [8], in [9], in test [10] and in test [11] was “binds” each time. The Kd with total bovine lung RAGE was 51.8 ± 20.6 nM; in test [6], 133 ± 46.4 nM.
